Key:
Test in all cases: ELISA
[1] = target: 17G10
[2] = target: 6B11
[3] = target: 12D9

Kd [1]: 33.9 nM
Kd [2]: 3.04 nM
Kd [3]: 0.39 nM
B1: mouse ENO1 (receptor)
chain: MSILRIHAREIFDSRGNPTVEVDLYTAKGLFRAAVPSGASTGIYEALELRDNDKTRFMGKGVSQAVEHINKTIAPALVSKKVNVVEQEKIDKLMIEMDGTENKSKFGANAILGVSLAVCKAGAVEKGVPLYRHIADLAGNPEVILPVPAFNVINGGSHAGNKLAMQEFMILPVGASSFREAMRIGAEVYHNLKNVIKEKYGKDATNVGDEGGFAPNILENKEALELLKTAIAKAGYTDQVVIGMDVAASEFYRSGKYDLDFKSPDDPSRYITPDQLADLYKSFVQNYPVVSIEDPFDQDDWGAWQKFTASAGIQVVGDDLTVTNPKRIAKAASEKSCNCLLLKVNQIGSVTESLQACKLAQSNGWGVMVSHRSGETEDTFIADLVVGLCTGQIKTGAPCRSERLAKYNQILRIEEELGSKAKFAGRSFRNPLAK

Reference: patent publication US20150175710A1 (published 2015)
